This is an account of results in article PMC8409985.

The assay addresses truncated human ACE2 ectodomain (residues 19–613) with C-terminal AVI-tag and 6xHis-tag, biotinylated (human) (UniProt Q9BYF1). As to the kind of experiment: BLI.

The substance “SARS-CoV-2 RBD variant S477N (from UniProt P0DTC2 319-541) (domain or fragment)” returned a t1/2 of 2.68 min.
